# Values of other authors as cited in patent US20200069786A1, “COMPOSITION AND PROCESS FOR PREPARING VACCINE” (TREOS BIO ZRT., priority 2018, published 2020).
# System: TSA
# Conditions: TSA expression rate in Esophageal
molecule,measurement,value
"TTK (protein, UniProt P33981 1-857, looked up) Dual specificity protein …: MESEDLSGRELTIDSIMNKVRDIKNKFKNEDLTDELSLNKISADTTDNSGTVNQIMMMANNPEDWLSLLLKLEKNSVPLSDALLNKLIGRYSQAIEALPPDKYGQNESFARIQVRFAELKAIQEPDDARDYFQMARANCKKFAFVHISFAQFELSQGNVKKSKQLLQKAVERGAVPLEMLEIALRNLNLQKKQLLSEEEKKNLSASTVLTAQESFSGSLGHLQNRNNSCDSRGQTTKARFLYGENMPPQDAEIGYRNSLRQTNKTKQSCPFGRVPVNLLNSPDCDVKTDDSVVPCFMKRQTSRSECRDLVVPGSKPSGNDSCELRNLKSVQNSHFKEPLVSDEKSSELIITDSITLKNKTESSLLAKLEETKEYQEPEVPESNQKQWQSKRKSECINQNPAASSNHWQIPELARKVNTEQKHTTFEQPVFSVSKQSPPISTSKWFDPKSICKTPSSNTLDDYMSCFRTPVVKNDFPPACQLSTPYGQPACFQQQQHQILATPLQNLQVLASSSANECISVKGRIYSILKQIGSGGSSKVFQVLNEKKQIYAIKYVNLEEADNQTLDSYRNEIAYLNKLQQHSDKIIRLYDYEITDQYIYMVMECGNIDLNSWLKKKKSIDPWERKSYWKNMLEAVHTIHQHGIVHSDLKPANFLIVDGMLKLIDFGIANQMQPDTTSVVKDSQVGTVNYMPPEAIKDMSSSRENGKSKSKISPKSDVWSLGCILYYMTYGKTPFQQIINQISKLHAIIDPNHEIEFPDIPEKDLQDVLKCCLKRDPKQRISIPELLAHPYVQIQTHPVNQMAKGTTEEMKYVLGQLVGLNSPNSILKAAKTLYEHYSGGESHNSSSSKTFEKKRGKK",Expression Rate (ER) %,97%
